# Results published in PMC8146883, “A New Thermophilic Ene-Reductase from the Filamentous Anoxygenic Phototrophic Bacterium Chloroflexus aggregans” (Microorganisms, 2021).
# B1: CaOYE (Chloroflexus aggregans DSM 9485) (protein)
# chain: MQPHLFTPLTIGSVTLRNRIGMSPMCQYSAVDGFPTDWHLMHLGARAAGGVGLIILEATAVSPEGRISPFDLGIWSDDHIAALSRIVKLIESLGAVAGIQLAHAGRKASVGRPWEGGKPIAPANGGWPVVGPTAEPFAPGYPTPIPLDAAGIARVVADFATATKRARAAGFRWIEIHAAHGYLLHNFLSPLGNDRNDEYGGDLRGRVRLLSEVTAAVRAEWPSDLPLAVRLSCSDWTPEGLTIADTVEVARMLREQGVDLIDCSSGGIAPGITIPVGEGYQVPFAAQVRREANIATAAVGLITRPEHADAIVRNGDADLVLLGRELLRDPHWPLRAARALGHDLAPPPQYLRAW
# notes: full-length ORF in pET-28a(+) (NdeI/BamHI), N-terminal His6-tag, E. coli BL21(DE3); model visible Met1 to Trp354; monomer in solution, dimer in crystal
# What was measured:
# Experiment in all cases: purified protein
# Format in all cases: biochemical, Chloroflexus aggregans
# Settings in all cases: 100 μM NADPH, 50 mM Tris-HCl pH 8.0, 25 °C, 1% ethanol, 200 nM enzyme
# [1] = substrate: O=C1C=CCCC1
# [2] = substrate: C=CC(=O)CCCCC
# [3] = substrate: CC1=CC(=O)CC(C)(C)C1=O
protein,measurement,setting,value
B1,Km,[1],5.520 ± 0.627 mM
same,kcat,[1],3.82 ± 0.176 s⁻¹
same,kcat/Km,[1],690 M⁻¹ s⁻¹
same,Km,[2],10.32 ± 1.438 mM
same,kcat,[2],12.1 ± 0.661 s⁻¹
same,kcat/Km,[2],1170 M⁻¹ s⁻¹
same,Km,[3],0.013 ± 0.002 mM
same,kcat,[3],2.27 ± 0.055 s⁻¹
same,kcat/Km,[3],175000 M⁻¹ s⁻¹
